Patent CN115125236A (YEASEN BIOLOGICAL TECH SHANGHAI CO LTD, dated 2022)

How the values were obtained:
Benzonase [1] = target: T1, Benzonase (粘质沙雷氏菌 (Serratia marcescens), UniProt P13717 22-266); experiment: ELISA, Benzonase coated, scFv from 1 μg/ml in twofold dilutions, HRP anti-flag-tag detection
T1 construct: Coated on the plate in the ELISA and used as the sample in the sandwich ELISA; also called 全能核酸酶; Benzonase蛋白
T1 sequence (looked up): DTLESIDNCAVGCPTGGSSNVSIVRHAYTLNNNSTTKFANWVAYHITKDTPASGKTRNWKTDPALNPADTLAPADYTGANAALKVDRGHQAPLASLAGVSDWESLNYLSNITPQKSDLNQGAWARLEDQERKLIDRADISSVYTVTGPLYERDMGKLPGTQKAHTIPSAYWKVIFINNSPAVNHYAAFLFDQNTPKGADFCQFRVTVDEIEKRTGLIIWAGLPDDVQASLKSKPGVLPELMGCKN

牛血清白蛋白 = target: T2, 牛血清白蛋白 (牛 (bovine, by its name), UniProt P02769 25-607); experiment: ELISA, BSA coated and blocked as control, HRP anti-flag-tag detection
T2 construct: also called BSA
T2 sequence (P02769 25-607 limits assumed): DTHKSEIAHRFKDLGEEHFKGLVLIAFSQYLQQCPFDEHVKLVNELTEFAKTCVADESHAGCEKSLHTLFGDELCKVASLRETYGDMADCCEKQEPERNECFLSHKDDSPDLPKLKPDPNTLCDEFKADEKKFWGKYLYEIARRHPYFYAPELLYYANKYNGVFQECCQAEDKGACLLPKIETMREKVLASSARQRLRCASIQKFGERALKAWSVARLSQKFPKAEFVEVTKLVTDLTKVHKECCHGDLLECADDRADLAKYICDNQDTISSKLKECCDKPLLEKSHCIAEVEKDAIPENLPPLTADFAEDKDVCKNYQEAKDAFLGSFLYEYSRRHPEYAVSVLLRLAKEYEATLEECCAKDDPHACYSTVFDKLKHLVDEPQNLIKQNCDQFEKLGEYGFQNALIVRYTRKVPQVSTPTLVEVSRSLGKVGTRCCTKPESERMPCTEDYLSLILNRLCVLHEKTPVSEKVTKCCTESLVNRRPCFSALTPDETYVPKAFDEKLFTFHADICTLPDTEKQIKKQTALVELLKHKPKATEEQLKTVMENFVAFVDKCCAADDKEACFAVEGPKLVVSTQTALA

Benzonase [2] = target: T1, Benzonase; experiment: sandwich ELISA, biotin-scFv4 as detection on Benzonase captured by scFv3, HRP-streptavidin

| Binder | binding result (Benzonase [1]) | binding result (牛血清白蛋白) | binding result (Benzonase [2]) |
| --- | --- | --- | --- |
| Benzonase单克隆抗体scFv5 (scFv) scFv: QLMESGGGLVTPGGTLTLTCTASGFSLSNYWMSWVRQAPGKGLEWIGIISNYGSTYYASWAKGRFTISKTSTTVDLRITSPTIEDTATYFCAREFAGVFNLWGPGTLVTVSSGGGGSGGGGSGGGGSDMTQTPASVSEPVGGTVTINCQASQSVYNNKNLAWYQQKPGQPPKVLIYKASTLASGVSSRFKGSGSGTEFTLTISDLECADAATYYCQQGHDTNVQNLFGGGTEVVVKAAAGA | binds | no binding (tested: 1μg/ml后二倍梯度稀释) |  |
| Benzonase单克隆抗体scFv1 (scFv) scFv: QLVESGGGLVTPGTPLTLTCTASGFSLSSYWMSWVRQAPGKGLEWIGVISSSGSTDYASWAKGRFTISKTSTTVDLKITSLTTEDTAIYFCARYSSDWNAYDLWGQGTLVTISSGGGGSGGGGSGGGGSVLTQTPSPVSAAVGGTVTISCQASQSVYGNNYLSWFQQKPGQPPKLLIYQASTLASGVPSRFSGSGSGTQFSLTISGVQCDDAATYYCAGWSGSGTDAVAFGGGTELEILGRSGP | binds | no binding (tested: 1μg/ml后二倍梯度稀释) |  |
| Benzonase单克隆抗体scFv3 (scFv) scFv: QLVESGGRLVTPGTPLTLTCTASGFALSGYYMTWVRQAPGKGLEWIGITHPSGSTYYASWVKGRFTISKASTTVDLRITSPTTEDTATYFCARVWTHYSSGGGDLWGPGTLVTISSGGGGSGGGGSGGGGSDLTQTPSSVSAAVGGTVTINCQSSESVYKNNDLSWYQQKPGQPPKLLISAASTLASGVPSRFKGSGSGTQFTLTISGVQCDDAATYYCQQGYSGDNVVNTFGGGTEVVVK | binds | no binding (tested: 1μg/ml后二倍梯度稀释) |  |
| Benzonase单克隆抗体scFv4 (scFv) scFv: QLMESGGGLVQPGASLTLTCTASGFSFSSNYWICWVRQAPGKGLEWIGCIYTGTSGTTYYASWAKGRFTISETSSTTVTLQMTSLTAADTATYFCSKNTYGYALAARLDLWGQGTLVTISSGGGGSGGGGSGGGGSDMTQTPASVEVAVGGTVTIKCQASQSIGSDLAWYQQKLGQPPKLLIYYASTLESGAPARFSGSGSGTEYTLTITDVQCDDAATYYCAGDYSSGNDNGFGGGTEVVVKA |  | no binding (tested: 1μg/ml后二倍梯度稀释) | binds |
| Benzonase单克隆抗体scFv6 (scFv) scFv: QLVESGGDLVKPGASLTLTCTASGFTLSSYWMCWVRQAPGKGLEWIGCIDTGSSDSTYYANWAKGRFTISKASSTTVTLQMTSVTPADTATYFCARHLRYSTNNNDWDLWGPGTLVTVSSGGGGSGGGGSGGGGSDLTQTPASVEAAVGDTVTIKCQASQSIYNYLAWYQQKPGQPPKVLIYAASNLASGVPSRFSGSGSGTQFTLTISGVQCDDAATYYCAGAYSTYGDNGFGGGTEVVVKA | binds | no binding (tested: 1μg/ml后二倍梯度稀释) |  |
